Reference: publication PMC2817471
Like-named read-outs stand apart in the source and are kept apart here.

T1: XPD (Sulfolobus acidocaldarius, UniProt Q4JC68 1-551)
T1 sequence: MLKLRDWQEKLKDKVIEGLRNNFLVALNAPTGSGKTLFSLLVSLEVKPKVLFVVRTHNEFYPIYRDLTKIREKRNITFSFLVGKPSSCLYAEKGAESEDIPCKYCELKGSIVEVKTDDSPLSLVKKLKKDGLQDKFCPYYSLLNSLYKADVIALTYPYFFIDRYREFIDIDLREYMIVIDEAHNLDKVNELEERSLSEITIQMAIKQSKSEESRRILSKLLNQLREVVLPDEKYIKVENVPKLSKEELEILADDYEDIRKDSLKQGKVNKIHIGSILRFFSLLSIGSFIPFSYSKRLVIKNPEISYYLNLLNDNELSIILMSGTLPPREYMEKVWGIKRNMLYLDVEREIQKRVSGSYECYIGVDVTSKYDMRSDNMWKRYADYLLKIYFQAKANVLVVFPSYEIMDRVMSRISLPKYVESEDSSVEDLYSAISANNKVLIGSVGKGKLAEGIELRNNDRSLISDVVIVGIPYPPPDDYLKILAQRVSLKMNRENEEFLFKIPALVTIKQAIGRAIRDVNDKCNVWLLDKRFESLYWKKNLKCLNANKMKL


Assays:
[1] = target: T1, XPD; assay: ITC
[2] = target: T1, XPD; assay: ITC; remark: listed apart in the source

Row | Binder | Kd [1] [µM] | Kd [2] [µM]
1 | TTTTTTTTTTTT (ssDNA) [ITC-T12] | 5.6 | –
2 | TTTTTTTT (ssDNA) [ITC-T8] | – | > 40
